Assay results published in the supplement of paper PMC10065799, “High-throughput profiling of sequence recognition by tyrosine kinases and SH2 domains using bacterial peptide display” (eLife, 2023).

What was measured:
FGFR1 = FGFR1 (UniProt P11362); test: phosphorylation enrichment, bacterial display (enrichment ratio); higher = better substrate or ligand; peptides without Tyr show the background
Fer (mouse) = test: as above
c-Src = test: as above
Fyn = Fyn (UniProt P06241); test: as above
EPHB2 = EPHB2 (UniProt P29323); test: as above
EPHB1 = EPHB1 (UniProt P54762); test: as above
FGFR3 = FGFR3 (UniProt P22607); test: as above
AncSZ = test: as above
Hck = Hck (UniProt P08631); test: as above
Fes = Fes (UniProt P07332); test: as above
c-Abl (mouse) = test: as above
Jak2 = Jak2 (UniProt O60674); test: as above
MERTK = MERTK (UniProt Q12866); test: as above
SHP2-C SH2 = test: SH2 binding enrichment of the phosphorylated peptide, bacterial display (enrichment ratio); higher = better substrate or ligand; peptides without Tyr show the background
c-Src SH2 = test: as above
Grb2 SH2 = Grb2 SH2 (UniProt P62993); test: as above
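For SH2 binding enrichment of the phosphorylated peptide, bacterial display in this document: peptide library displayed on the E. coli surface as eCPX fusions, selected cells deep-sequenced, score is each peptide's frequency after selection divided by its frequency in the input.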
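For phosphorylation enrichment, bacterial display in this document: 11-residue human phosphosite peptides and single-mutation variants displayed on the E. coli surface, counted by deep sequencing, each peptide's frequency after selection divided by its frequency in the unselected input library; frequency after pTyr selection over input frequency; kinase dosed for 20-30% of maximal phosphorylation in three min.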

Fes, sequence (P07332 whole entry, looked up): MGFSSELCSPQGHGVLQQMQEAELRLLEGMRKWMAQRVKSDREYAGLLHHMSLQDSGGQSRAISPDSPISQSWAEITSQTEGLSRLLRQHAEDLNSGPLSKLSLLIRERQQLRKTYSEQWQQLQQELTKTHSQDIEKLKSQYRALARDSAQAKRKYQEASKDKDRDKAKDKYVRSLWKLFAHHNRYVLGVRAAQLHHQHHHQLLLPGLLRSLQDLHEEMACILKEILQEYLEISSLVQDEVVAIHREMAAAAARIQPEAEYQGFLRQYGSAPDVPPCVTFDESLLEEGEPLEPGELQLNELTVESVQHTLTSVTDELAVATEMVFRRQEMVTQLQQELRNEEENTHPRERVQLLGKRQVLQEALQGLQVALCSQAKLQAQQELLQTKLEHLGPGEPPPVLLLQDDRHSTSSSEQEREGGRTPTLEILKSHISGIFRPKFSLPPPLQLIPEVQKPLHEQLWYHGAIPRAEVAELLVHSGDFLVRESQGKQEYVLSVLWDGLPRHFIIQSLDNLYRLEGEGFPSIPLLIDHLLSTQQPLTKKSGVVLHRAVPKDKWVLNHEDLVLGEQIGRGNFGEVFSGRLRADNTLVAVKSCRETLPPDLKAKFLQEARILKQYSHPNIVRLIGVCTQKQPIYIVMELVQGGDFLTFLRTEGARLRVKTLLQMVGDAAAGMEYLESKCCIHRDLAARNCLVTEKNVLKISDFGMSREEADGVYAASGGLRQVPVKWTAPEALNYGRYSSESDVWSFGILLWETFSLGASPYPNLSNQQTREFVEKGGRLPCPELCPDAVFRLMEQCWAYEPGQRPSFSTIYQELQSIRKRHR
MERTK, sequence (Q12866 whole entry, looked up): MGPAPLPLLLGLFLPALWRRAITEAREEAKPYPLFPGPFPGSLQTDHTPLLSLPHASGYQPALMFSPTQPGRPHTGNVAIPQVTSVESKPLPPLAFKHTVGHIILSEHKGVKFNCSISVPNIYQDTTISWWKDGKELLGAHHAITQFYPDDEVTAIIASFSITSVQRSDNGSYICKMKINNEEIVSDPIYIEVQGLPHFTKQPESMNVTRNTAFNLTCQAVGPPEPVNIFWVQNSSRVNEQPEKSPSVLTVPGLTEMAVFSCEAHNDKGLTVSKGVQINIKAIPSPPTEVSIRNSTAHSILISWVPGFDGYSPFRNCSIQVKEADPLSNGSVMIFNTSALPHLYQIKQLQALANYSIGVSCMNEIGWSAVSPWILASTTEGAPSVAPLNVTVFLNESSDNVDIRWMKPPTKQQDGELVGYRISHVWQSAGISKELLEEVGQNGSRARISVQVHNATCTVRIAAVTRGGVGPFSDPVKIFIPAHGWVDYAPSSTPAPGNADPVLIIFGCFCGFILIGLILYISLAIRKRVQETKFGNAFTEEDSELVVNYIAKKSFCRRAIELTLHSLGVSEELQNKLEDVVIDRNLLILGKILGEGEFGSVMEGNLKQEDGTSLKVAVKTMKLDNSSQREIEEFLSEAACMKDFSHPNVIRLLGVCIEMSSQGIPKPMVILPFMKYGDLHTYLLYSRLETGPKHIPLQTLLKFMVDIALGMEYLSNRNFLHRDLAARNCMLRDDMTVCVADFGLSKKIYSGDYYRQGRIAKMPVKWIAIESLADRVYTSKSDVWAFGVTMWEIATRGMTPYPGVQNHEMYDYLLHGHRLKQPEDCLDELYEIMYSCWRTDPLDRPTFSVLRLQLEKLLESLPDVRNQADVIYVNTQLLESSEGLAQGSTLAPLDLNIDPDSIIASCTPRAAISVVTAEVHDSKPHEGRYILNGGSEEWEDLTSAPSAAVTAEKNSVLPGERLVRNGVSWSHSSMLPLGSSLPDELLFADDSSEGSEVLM
EPHB1, sequence (P54762 whole entry, looked up): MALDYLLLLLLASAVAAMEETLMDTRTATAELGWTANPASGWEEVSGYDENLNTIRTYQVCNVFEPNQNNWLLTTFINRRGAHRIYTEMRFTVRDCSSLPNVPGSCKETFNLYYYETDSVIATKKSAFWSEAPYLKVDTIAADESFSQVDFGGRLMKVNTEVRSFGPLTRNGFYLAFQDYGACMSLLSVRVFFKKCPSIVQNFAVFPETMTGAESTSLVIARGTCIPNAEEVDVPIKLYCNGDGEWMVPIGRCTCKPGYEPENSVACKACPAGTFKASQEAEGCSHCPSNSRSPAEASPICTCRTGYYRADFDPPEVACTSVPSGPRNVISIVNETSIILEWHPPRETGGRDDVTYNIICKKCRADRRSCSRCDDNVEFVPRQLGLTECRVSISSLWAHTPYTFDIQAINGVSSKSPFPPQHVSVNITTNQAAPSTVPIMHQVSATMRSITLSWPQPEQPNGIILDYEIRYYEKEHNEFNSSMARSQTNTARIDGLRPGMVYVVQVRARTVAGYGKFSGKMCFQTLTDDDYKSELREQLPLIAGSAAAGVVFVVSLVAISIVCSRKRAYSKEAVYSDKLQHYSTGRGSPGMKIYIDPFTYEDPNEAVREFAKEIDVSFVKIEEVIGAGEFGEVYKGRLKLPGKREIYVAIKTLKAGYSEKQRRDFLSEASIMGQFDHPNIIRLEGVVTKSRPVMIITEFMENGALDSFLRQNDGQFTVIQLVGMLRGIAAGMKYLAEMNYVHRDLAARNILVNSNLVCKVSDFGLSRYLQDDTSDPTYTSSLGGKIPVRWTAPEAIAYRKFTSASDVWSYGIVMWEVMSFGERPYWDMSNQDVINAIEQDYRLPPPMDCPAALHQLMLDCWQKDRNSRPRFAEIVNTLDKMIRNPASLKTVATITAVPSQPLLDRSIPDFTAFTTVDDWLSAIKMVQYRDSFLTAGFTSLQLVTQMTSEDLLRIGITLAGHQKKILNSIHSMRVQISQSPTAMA
FGFR3, sequence (P22607 whole entry, looked up): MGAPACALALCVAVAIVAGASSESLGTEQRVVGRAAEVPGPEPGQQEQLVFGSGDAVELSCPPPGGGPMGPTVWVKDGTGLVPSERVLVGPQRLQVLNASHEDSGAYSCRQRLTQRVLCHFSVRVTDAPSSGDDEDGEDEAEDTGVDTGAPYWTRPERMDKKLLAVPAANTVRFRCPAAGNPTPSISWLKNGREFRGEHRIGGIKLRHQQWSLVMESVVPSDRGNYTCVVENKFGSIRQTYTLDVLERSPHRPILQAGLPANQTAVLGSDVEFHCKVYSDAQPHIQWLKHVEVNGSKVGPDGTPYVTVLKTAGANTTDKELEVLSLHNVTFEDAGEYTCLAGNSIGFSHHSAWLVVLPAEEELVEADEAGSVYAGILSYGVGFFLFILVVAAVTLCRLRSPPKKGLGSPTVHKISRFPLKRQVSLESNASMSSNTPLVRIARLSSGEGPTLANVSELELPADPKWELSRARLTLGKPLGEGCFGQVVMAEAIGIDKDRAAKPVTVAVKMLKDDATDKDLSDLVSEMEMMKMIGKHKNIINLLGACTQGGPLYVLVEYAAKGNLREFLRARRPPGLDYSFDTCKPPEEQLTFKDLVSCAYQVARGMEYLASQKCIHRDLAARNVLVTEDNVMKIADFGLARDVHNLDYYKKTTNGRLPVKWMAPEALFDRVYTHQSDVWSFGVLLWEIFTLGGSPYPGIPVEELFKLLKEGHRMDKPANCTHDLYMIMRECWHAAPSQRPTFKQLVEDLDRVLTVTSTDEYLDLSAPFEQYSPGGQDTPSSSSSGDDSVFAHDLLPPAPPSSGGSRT
FGFR1, sequence (P11362 whole entry, looked up): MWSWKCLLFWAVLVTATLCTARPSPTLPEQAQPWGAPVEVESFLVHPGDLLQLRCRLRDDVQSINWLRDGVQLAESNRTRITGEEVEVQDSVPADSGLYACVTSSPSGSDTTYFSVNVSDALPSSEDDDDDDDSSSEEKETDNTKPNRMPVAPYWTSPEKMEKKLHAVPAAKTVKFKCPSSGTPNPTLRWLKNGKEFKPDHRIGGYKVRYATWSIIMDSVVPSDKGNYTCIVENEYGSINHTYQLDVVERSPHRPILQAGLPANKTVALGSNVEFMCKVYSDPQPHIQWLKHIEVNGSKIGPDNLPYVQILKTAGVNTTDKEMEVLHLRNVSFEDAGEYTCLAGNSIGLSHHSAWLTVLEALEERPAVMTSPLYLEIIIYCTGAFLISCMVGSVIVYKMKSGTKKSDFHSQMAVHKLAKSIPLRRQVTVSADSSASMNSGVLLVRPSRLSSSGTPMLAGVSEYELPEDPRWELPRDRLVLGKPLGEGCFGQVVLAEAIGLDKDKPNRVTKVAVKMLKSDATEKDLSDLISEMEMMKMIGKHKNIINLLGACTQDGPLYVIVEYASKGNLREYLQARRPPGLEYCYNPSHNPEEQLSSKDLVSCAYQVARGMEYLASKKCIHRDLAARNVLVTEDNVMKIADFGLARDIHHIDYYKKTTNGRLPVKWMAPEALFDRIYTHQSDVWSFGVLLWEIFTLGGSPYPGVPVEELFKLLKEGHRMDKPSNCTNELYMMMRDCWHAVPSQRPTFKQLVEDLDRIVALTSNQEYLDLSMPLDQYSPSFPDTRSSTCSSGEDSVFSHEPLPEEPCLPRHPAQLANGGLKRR
Fyn, sequence (P06241 whole entry, looked up): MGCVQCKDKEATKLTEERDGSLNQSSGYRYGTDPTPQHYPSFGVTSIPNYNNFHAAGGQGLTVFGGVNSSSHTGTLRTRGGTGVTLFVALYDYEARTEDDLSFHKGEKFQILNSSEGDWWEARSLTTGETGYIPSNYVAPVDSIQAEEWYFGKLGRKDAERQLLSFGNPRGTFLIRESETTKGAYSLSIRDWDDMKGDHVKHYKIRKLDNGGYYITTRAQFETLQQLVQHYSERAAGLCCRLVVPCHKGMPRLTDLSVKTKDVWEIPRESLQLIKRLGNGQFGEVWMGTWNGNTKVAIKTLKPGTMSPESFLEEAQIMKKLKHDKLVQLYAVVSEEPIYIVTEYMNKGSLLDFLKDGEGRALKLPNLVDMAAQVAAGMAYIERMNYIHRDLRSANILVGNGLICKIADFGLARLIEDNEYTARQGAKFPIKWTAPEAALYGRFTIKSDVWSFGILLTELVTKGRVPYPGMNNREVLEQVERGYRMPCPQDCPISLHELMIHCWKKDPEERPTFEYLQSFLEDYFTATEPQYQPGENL

Sequence | phosphorylation enrichment (FGFR1) | phosphorylation enrichment (Fer (mouse)) | phosphorylation enrichment (c-Src) | phosphorylation enrichment (Fyn) | phosphorylation enrichment (EPHB2) | phosphorylation enrichment (EPHB1) | phosphorylation enrichment (FGFR3) | phosphorylation enrichment (AncSZ) | phosphorylation enrichment (Hck) | phosphorylation enrichment (Fes) | phosphorylation enrichment (c-Abl (mouse)) | phosphorylation enrichment (Jak2) | phosphorylation enrichment (MERTK) | SH2 binding enrichment (SHP2-C SH2) | SH2 binding enrichment (c-Src SH2) | SH2 binding enrichment (Grb2 SH2)
SDVLSYGVTMW [ZAP70_Y525_W523L] | 0.493 | 0.523 | 0.531 | 0.449 | 0.604 | 0.626 | 0.642 | 0.922 | 0.475 | 1.03 | 0.645 | 1.04 | 0.342 | 0.699 | 0.474 | 0.837
PQIVNYSPDCI [LDHB_Y128_K127N] | 0.684 | 0.83 | 0.387 | 0.457 | 0.451 | 0.668 | 0.939 | 0.415 | 1 | 0.824 | 0.216 | 0.254 | 0.179 | 0.492 | 0.506 | 0.891
DWQQEYVLNES [TGM1_Y267_R264Q] | 1.11 | 0.434 | 2.73 | 0.648 | 0.615 | 1.42 | 0.996 | 2.03 | 0.6 | 1.45 | 0.788 | 0.957 | 0.427 | 0.681 | 0.506 | 0.766
AFEQQYSPIPR [NOX1_Y373] | 1.07 | 0.451 | 0.989 | 0.624 | 0.512 | 0.404 | 0.769 | 0.767 | 4.92 | 0.707 | 0.701 | 0.583 | 1.25 | 0.724 | 0.508 | 0.772
IPQEEYTATGL | 0.506 | 0.562 | 0.56 | 0.437 | 0.512 | 0.622 | 0.653 | 1.16 | 0.461 | 1.39 | 0.924 | 0.955 | 0.378 | 0.79 | 0.441 | 0.799
NRLTDYFEPLL [BBS10_Y536_YF] | 6.99 | 0.468 | 0.406 | 0.755 | 1.16 | 2.54 | 4.38 | 1.71 | 0.548 | 0.993 | 0.675 | 0.959 | 0.381 | 0.842 | 0.711 | 1.02
KSLFHHRQYSA [CPS1_Y1491_Y1491H] | 0.563 | 0.439 | 0.478 | 0.519 | 0.491 | 1.04 | 0.412 | 0.573 | 0.488 | 0.547 | 0.504 | 0.555 | 0.472 | 0.613 | 0.341 | 0.618
KDHPDYKYQRR [SOX10_Y171_P175R] | 0.402 | 0.303 | 0.319 | 0.283 | 0.3 | 0.33 | 0.369 | 0.483 | 0.367 | 0.574 | 0.516 | 0.519 | 0.349 | 1.17 | 0.829 | 1.03
QHVPDYRQNGF [PCDHGA1_Y890_V894G_YF] | 0.55 | 0.503 | 0.543 | 0.531 | 0.459 | 0.589 | 0.597 | 0.787 | 0.455 | 0.875 | 0.758 | 0.826 | 0.464 | 0.633 | 0.494 | 0.776
GQAPGYSFTAA [CYCS_Y47_YF] | 0.422 | 0.364 | 0.503 | 0.393 | 0.427 | 0.354 | 0.428 | 0.502 | 0.416 | 0.509 | 0.504 | 0.471 | 0.389 | 0.8 | 0.577 | 0.653
HFIKLYEEKTG [PARP1_Y618_M615I] | 0.456 | 0.798 | 0.392 | 0.978 | 1.08 | 1.17 | 0.807 | 1.69 | 0.828 | 0.952 | 0.781 | 1.03 | 0.694 | 1.57 | 0.872 | 1.16
TIQMMYGCDVG [HLA-A_Y123_I121M] | 0.561 | 0.532 | 0.513 | 0.525 | 0.555 | 0.718 | 0.987 | 1.22 | 0.501 | 1.38 | 0.822 | 1.31 | 0.408 | 0.575 | 0.414 | 0.845
SGAWSYNTSTE [SELE_Y24] | 0.52 | 0.382 | 0.378 | 0.499 | 0.502 | 0.458 | 0.621 | 0.788 | 0.379 | 0.748 | 0.55 | 0.881 | 0.447 | 0.886 | 0.536 | 0.802
RVEDACILTCN [CCT6A_Y229_Y229C] | 0.708 | 0.571 | 0.727 | 0.551 | 0.688 | 0.622 | 0.968 | 0.994 | 0.751 | 1.12 | 0.86 | 1.18 | 0.683 | 0.738 | 0.657 | 0.85
EWLRRHLENGK [HLA-A_Y195_Y195H] | 0.429 | 0.34 | 0.331 | 0.302 | 0.481 | 0.39 | 0.552 | 0.578 | 0.409 | 0.811 | 0.57 | 0.824 | 0.34 | 0.839 | 0.6 | 0.823
KFDLMYAKCAF [TUBA1A_Y399_R402C] | 0.491 | 0.68 | 0.598 | 0.567 | 0.723 | 0.72 | 0.841 | 1.27 | 0.677 | 1.35 | 1.06 | 1.25 | 0.624 | 0.473 | 0.557 | 0.687
QHVPDYRQNVF [PCDHGA1_Y890_YF] | 0.59 | 0.578 | 0.572 | 0.602 | 0.597 | 0.583 | 0.704 | 0.889 | 0.585 | 1.03 | 0.798 | 0.991 | 0.54 | 0.678 | 0.508 | 0.888
